The text below walks through data of US20110269676A1.

The assay has as its target recombinant gp120 (HIV (strain not stated)). Kind of assay: SPR (BIAcore3000), gp120 immobilised on CM5. In general terms: SPR reads the build-up and loss of mass on a sensor chip optically.

The term Kd denotes the free concentration of one partner at which half of the binding sites on the other are occupied at equilibrium, for simple one-to-one binding. By koff is commonly meant a measure of how fast the partners let go of each other. Usually kon stands for the second-order rate constant of association. As for “2D (D1D2 domain of soluble CD4) (from UniProt P01730 26-210) (receptor)”, the Ka amounted to 4.8e+07 M⁻¹, the dissociation constant Kd stood at 21 nM, the off-rate (koff) was determined as 0.00047 s⁻¹ and the kon came to 22000 M⁻¹ s⁻¹.
